Experiments:
[1] = biological target: T1, Kv1.1 (native, mouse brain extracts) (mouse, UniProt P16388 1-495); assay: GST pull-down from adult mouse brain membrane extracts
T1 construct: also called Kv1.1 K+ channel alpha-subunit
Description: (§1) During myelination, the proper segregation of K^+ channels to juxtaparanodes requires an intact paranodal axoglial junction (Vabnick and Shrager, 1998).

[2] = biological target: T2, Caspr (native, mouse brain) (mouse, UniProt O54991 21-1385); assay: as above
T2 construct: also called mouse Caspr
T2 sequence (looked up): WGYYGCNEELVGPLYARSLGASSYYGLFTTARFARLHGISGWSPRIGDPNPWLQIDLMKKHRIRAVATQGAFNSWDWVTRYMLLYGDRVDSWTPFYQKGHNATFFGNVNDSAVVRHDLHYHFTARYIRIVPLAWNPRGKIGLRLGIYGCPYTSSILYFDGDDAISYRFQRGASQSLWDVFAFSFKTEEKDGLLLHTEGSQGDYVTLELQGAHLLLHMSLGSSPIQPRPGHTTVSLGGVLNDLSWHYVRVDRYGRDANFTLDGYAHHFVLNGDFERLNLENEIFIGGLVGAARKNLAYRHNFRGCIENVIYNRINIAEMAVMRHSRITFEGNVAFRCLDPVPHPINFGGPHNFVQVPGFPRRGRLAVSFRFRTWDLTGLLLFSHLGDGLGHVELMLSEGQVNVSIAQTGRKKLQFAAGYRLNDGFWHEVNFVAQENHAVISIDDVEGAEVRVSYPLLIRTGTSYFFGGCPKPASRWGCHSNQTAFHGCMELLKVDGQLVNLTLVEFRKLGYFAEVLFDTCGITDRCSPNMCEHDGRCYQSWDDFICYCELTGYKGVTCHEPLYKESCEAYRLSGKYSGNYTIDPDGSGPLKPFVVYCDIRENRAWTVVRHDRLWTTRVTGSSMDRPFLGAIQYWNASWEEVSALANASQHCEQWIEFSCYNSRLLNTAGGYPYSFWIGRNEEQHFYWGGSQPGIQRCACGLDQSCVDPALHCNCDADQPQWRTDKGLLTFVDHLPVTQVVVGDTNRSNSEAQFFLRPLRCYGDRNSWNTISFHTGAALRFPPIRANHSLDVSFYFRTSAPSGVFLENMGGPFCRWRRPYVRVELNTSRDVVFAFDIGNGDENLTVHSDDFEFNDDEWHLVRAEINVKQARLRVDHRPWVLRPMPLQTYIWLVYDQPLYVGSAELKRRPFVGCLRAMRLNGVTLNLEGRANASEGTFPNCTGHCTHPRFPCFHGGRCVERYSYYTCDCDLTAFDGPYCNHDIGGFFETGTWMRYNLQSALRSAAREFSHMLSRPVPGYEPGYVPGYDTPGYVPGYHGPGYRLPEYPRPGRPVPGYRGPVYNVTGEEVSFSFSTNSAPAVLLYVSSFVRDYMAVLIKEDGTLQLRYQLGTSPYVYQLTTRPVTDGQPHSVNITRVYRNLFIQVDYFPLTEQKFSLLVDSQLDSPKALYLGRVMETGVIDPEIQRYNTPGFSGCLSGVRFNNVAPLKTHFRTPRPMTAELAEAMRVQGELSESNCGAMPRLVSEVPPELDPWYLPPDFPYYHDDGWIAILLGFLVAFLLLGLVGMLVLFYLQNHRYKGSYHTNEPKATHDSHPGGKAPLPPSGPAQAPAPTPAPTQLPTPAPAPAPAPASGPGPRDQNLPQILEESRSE
Description: as §1

[3] = biological target: T3, F3 on F3-transfected CHO cells (UniProt P12960 21-1001); assay: cell adhesion assay, F3-CHO cells on coated substrate
T3 construct: whole, on cells; also called F3-CHO; F3-expressing CHO cells
T3 sequence (looked up): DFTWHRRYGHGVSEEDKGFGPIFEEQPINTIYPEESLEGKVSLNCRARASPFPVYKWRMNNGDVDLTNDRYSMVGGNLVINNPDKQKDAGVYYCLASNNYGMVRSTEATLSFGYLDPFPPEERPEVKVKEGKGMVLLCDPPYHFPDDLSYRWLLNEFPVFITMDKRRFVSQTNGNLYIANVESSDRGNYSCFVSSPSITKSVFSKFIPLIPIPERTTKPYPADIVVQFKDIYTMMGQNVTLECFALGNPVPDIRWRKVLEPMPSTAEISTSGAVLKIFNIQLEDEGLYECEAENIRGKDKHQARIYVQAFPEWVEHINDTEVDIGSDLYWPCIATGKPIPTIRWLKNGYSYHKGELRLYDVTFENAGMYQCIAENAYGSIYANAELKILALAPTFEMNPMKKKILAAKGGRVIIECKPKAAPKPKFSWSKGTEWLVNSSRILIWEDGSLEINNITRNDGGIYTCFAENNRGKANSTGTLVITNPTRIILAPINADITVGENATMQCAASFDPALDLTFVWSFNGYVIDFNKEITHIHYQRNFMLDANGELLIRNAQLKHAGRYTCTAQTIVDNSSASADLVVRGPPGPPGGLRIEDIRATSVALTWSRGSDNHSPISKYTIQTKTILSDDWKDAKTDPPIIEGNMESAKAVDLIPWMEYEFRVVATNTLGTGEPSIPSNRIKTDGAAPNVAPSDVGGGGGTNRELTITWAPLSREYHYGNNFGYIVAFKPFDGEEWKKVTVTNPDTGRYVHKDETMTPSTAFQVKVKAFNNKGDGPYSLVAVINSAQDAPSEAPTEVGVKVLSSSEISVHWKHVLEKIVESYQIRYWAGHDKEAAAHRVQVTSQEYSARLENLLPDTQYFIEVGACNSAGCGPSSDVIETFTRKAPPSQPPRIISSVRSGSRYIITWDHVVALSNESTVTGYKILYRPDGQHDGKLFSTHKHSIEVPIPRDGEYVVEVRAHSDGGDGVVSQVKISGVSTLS

Notch1 on OLN-93 cells = biological target: T4, Notch1 on OLN-93 cells (rat, UniProt Q07008 19-2531); assay: OLN-93 cell adhesion to control substrate
T4 construct: whole, on cells; OLN-93 cells carry both Notch1 and Notch2; also called OLN cells
Protocol: (§2) This was carried out as previously described (Xiao et al, 1996). Briefly, 35 mm tissue culture petri dishes (Becton Dickinson) were coated with methanol solubilized nitrocellulose (Lagenaur and Lemon, 1987) and air-dried under a sterile hood. […] Subsequently, the dishes were washed three times with calcium- and magnesium-free Hank's balanced salt solution (CMF-HBSS) and blocked overnight with 2% heat-inactivated fatty acid-free BSA (Sigma) in CMF-HBSS (this blocking step is skipped in the repulsion test). […] After 0.5 hour (in the adhesion test) or 12 hours (in the repulsion test), the dishes were gently washed three times with CMF-HBSS and the cells were fixed with 2.5% glutaldehyde in CMF-HBSS. […] Cells adhering to the various spots were photographed and counted. The results were analyzed by Student's t test with p<0.05 and p<0.01 being considered significant or highly significant difference, respectively.

Notch2 on OLN-93 cells = biological target: T5, Notch2 on OLN-93 cells (rat, UniProt Q9QW30 26-2471); assay: OLN-93 cell adhesion to control substrate
T5 construct: whole, on cells; also called OLN cells
Protocol: as §2

T4 sequence (Q07008 19-2531): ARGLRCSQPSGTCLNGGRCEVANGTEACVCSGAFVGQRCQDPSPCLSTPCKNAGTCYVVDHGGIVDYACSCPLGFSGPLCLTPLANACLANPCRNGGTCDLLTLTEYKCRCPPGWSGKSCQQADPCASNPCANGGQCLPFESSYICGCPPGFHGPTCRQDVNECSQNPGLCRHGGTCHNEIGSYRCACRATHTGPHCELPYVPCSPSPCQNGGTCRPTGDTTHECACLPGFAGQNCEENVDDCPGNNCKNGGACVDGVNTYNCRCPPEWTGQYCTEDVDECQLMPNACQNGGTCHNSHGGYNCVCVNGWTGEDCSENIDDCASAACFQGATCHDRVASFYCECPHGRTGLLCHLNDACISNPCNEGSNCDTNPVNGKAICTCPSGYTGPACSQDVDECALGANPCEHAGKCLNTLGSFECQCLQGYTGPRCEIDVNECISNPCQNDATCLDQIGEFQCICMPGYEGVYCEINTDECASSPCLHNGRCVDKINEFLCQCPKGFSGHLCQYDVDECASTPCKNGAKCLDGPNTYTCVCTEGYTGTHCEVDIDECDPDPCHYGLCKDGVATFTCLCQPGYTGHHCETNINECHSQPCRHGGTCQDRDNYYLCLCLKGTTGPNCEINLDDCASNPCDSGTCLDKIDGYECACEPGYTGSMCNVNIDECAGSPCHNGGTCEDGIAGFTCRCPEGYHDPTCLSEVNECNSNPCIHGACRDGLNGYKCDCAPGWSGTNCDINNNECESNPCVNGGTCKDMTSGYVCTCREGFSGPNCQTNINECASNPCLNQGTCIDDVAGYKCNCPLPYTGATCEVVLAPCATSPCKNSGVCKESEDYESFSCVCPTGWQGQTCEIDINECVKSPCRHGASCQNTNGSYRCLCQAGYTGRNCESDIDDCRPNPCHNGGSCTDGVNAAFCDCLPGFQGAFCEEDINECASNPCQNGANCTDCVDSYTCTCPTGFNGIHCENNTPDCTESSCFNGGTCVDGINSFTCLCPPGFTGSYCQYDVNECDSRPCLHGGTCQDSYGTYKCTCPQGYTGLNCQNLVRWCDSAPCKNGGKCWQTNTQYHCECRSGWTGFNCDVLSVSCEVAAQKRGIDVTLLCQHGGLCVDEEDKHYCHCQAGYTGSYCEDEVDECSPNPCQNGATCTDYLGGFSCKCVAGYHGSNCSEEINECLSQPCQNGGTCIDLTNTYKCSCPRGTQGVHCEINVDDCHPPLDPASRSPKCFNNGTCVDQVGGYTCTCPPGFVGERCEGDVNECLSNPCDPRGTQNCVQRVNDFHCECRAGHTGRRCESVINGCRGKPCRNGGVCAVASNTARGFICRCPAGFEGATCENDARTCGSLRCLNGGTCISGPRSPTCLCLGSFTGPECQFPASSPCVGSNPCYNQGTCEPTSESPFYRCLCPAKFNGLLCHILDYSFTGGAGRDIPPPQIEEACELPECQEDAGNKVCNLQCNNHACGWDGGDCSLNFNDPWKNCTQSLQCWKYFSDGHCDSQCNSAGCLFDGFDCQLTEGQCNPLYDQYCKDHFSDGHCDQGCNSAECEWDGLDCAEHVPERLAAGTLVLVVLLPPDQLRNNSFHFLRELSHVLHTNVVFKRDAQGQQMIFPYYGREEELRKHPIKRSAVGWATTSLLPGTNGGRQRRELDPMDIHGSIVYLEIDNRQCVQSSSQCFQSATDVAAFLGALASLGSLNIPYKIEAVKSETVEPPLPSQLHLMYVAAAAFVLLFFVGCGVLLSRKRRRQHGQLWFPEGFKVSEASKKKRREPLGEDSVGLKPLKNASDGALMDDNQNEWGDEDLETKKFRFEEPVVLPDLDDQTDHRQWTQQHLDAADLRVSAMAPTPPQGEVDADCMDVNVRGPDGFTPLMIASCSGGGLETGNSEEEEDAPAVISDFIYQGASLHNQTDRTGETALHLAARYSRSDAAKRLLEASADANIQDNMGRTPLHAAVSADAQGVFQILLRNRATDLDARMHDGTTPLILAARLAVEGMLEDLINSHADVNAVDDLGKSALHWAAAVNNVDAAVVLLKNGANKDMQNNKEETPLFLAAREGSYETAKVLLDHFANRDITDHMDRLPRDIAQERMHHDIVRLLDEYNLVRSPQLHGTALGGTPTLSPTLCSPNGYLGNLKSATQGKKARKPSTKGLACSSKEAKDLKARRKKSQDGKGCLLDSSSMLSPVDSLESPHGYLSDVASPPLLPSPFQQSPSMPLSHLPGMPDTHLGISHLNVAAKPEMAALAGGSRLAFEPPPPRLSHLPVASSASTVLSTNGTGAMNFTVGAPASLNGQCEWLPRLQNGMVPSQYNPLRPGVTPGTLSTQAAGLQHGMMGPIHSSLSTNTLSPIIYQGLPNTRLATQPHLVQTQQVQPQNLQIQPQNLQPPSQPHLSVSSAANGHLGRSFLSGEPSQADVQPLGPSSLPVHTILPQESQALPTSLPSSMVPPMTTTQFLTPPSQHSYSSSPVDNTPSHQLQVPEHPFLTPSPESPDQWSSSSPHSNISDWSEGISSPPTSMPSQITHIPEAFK
T1 sequence (P16388 whole entry): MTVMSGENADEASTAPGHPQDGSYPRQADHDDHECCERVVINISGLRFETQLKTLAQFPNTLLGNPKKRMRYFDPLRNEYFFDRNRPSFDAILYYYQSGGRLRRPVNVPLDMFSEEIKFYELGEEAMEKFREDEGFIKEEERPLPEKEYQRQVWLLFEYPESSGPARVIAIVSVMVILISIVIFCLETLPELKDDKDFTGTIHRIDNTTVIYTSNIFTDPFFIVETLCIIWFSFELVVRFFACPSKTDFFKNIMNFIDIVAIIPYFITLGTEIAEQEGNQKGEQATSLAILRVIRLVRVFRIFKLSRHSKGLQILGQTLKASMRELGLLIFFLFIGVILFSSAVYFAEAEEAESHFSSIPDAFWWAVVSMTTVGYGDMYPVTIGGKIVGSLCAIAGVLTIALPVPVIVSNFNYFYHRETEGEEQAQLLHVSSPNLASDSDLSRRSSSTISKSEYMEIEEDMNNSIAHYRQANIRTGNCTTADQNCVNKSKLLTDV

B1: GST-Nogo-N (other, human, UniProt Q9NQC3 186-370, looked up)
chain: DETLFALPAASEPVIRSSAENMDLKEQPGNTISAGQEDFPSVLLETAASLPSLSPLSAASFKEHEYLGNLSTVLPTEGTLQENVSEASKEVSEKAKTLLIDRDLTEFSELEYSEMGSSFSVSPKAESAVIVANPREEIIVKNKDEEEKLVSNNILHNQQELPTALTKLVKEDEVVSSEKAKDSFN
notes: domain: cytoplasmic N-terminal domain of Nogo-A (Nogo-N); also called Nogo-N-GST; Nogo-N-terminal-GST; not shown: glutathione S-transferase (GST) encoded by vector pGEX-KG
B1: no binding (tested: 20 µg bead-bound protein) [1]; no binding (tested: 20 µg bead-bound protein) [2]; no binding [3].

B2: CHL1-Fc (Fc fusion, UniProt P70232 26-1083, looked up)
chain: EIPLSVQQVPTIVKQSYVQVAFPFDEYFQIECEAKGNPEPIFSWTKDDKPFDLSDPRIIAANNSGTFKIPNEGHISHFQGKYRCFASNRLGTAVSEEIEFIVPGVPKFPKEKIEPIDVEEGDSIVLPCNPPKGLPPLHIYWMNIELEHIEQDERVYMSQRGDLYFANVEENDSRNDYCCFAAFPKLRTIVQKMPMKLTVNSSNSIKQRKPKLLLPPAQMGSLSAKTVLKGDTLLLECFAEGLPTPHIQWSKPGSELPEGRATIEVHEKTLKIENISYQDRGNYRCTANNLLGKASHDFHVTVEEPPRWKKKPQSAVYSTGSSGILLCEAEGEPQPTIKWRLNGLPIEKHPFPGDFMFPREISFTNLLPNHTGVYQCEASNIHGTILANANIDVIDVIPLIKTKNEENYATVVGYSAFLHCEYFASPKATVVWEVADETHPLEGDRYHTHENGTLEIYRTTEEDAGSYSCWVDNAMGKAVITANLDIRNATKLRVSPKNPRIPKSHVLELYCESQCDSHLKHSLKLSWSKDGEAFEMNGTEDGRIVIDGAYLTISNITAEDQGVYSCSAQTSLDSTSEKTQVTVLGVPDPPGNLHLSERQNRSVRLSWEAGDDHNSKISEYIVEFEGNREEPGKWEELTRVQGEETDVVLSLAPYVRYQFRVTAVNEVGRSHASLPSDHHETPPAAPDKNPQNIRVQASQPKEMIIKWEPLKSMEQNGPGLEYKVSWKPQGAPEEWEEEIVTNHTLRVMTPTVYAPYDVKVQAINQLGSSPDPQPVTLYSGEDYPSTAPVIQRVDVMNSTLVKVTWSSIPKETVHGLLRGYQINWWKTKSLLDGRTHPKEVNILRFSGQRNSGMVPSLDPFSEFHLTVLAYNSKGAGPESEPYIFQTPEGVPEQPSFLKVIKVDKDTATLSWGLPKKLNGNLTGYLLQYQIINDTYELGELNEINVTTPSKSSWHLSNLNSTTKYKFYLRACTSRGCGKPISEEGATLGEGSKGIRKITEGVNVTQKIHPVEVLVPGAEHIVHLMTKNWGDNDSIFQDVIETRGREYAGLYDDISTQGW
notes: Control substrate; also called CHL-Fc; not shown: human IgG Fc
B2: no binding (tested: 2.5 µl of 12 µM CHL1-Fc spotted) (Notch1 on OLN-93 cells); no binding (tested: 2.5 µl of 12 µM CHL1-Fc spotted) (Notch2 on OLN-93 cells).

Source: US8273855 (JIANGSU NOVAVAC BIO TEC, dated 2012)
